PMC9402603

Assays:
[1] = molecular target: ChbG from Klebsiella pneumoniae (chitooligosaccharide deacetylase), wild type (Klebsiella pneumoniae) (UniProt A6T7U7); assay: SEC-MALS; kpChbG 5 mg/mL, Superdex 200 10/300, SEC buffer (20 mM Tris-HCl pH 8.0, 150 mM NaCl), 0.4 mL/min, 25 °C, DAWN-Treos MALS detector
[2] = molecular target: ChbG from Klebsiella pneumoniae (chitooligosaccharide deacetylase), wild type (Klebsiella pneumoniae) (UniProt A6T7U7); assay: SEC; Superdex 200 Increase 10/300 GL (24 mL), 20 mM Tris-HCl pH 8.0, 150 mM NaCl, 0.4 mL/min, 4 °C; wild type elutes at approximately 15 mL, E23K/D224K at approximately 17 mL
[3] = molecular target: kpChbG E23K/D224K double-mutant (Klebsiella pneumoniae) (UniProt A6T7U7)

| Substance | stoichiometry N [1] | stoichiometry N [2] | deacetylation of N,N’-diacetylchitobiose measured by ESI-MS, dimerization disrupting mutant E23K/D224K against wild type [3] |
| --- | --- | --- | --- |
| ChbG from Klebsiella pneumoniae (chitooligosaccharide deacetylase), wild type (from UniProt A6T7U7 1-252) (enzyme) | 2 | 2 |  |
| kpChbG E23K/D224K double-mutant (from UniProt A6T7U7 1-252) (enzyme) |  |  | > 50% |
